Test results from the supplement of paper PMC10724198.
± gives the standard deviation of the averaged measurements.

Assays:
Saccharomyces cerevisiae [1] = assay: protein stability index of tFT-peptide fusion (C-terminal peptide) (PSI (0-1 scale)); higher = more stable (slower turnover)
Experimental: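 MPS profiling in S. cerevisiae of the tFT-X12 degron library: putative degron peptides plus stable controls, 12 aa, fused to the C-terminus of a sfGFP-mCherry timer. Cells are FACS-sorted into 8 mCherry/sfGFP bins and deep-sequenced. PSI runs from 0 (unstable) to 1 (stable). Backgrounds are wild type, das1Δ and doa10Δ at 30 °C, and wild type, das1Δ, cdc34-1 and cdc53-1 at 37 °C; 2-3 technical replicates each.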

Saccharomyces cerevisiae [2] = assay: as above; conditions: genetic background: wild type; temperature: 30 C
[3] = genetic background: cdc34-1, temperature: 37 C
[4] = genetic background: cdc53-1, temperature: 37 C
[5] = genetic background: das1 deletion, temperature: 30 C
[6] = genetic background: das1 deletion, temperature: 37 C
[7] = genetic background: doa10 deletion, temperature: 30 C
[8] = genetic background: wild type, temperature: 30 C
[9] = genetic background: wild type, temperature: 37 C
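Further: PSI is a weighted mean of sequencing reads over stability bins, variants kept only with over 10 reads, mCherry proximal and sfGFP distal, peptide attached via GGGS linker.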

Sequence	protein stability index (Saccharomyces cerevisiae [1]; [3])	protein stability index (Saccharomyces cerevisiae [1]; [4])	protein stability index (Saccharomyces cerevisiae [1]; [5])	protein stability index (Saccharomyces cerevisiae [1]; [6])	protein stability index (Saccharomyces cerevisiae [1]; [7])	protein stability index (Saccharomyces cerevisiae [1]; [8])	protein stability index (Saccharomyces cerevisiae [1]; [9])	protein stability index (Saccharomyces cerevisiae [2])
LLAVIVWIVPPA	0.241 ± 0.01	0.35 ± 0.0085	0.233 ± 0.023	0.423 ± 0.0079	0.204 ± 0.0016	0.222 ± 0.028	0.39 ± 0.0093	0.304 ± 0.042
LLCRVSRTRILC	0.478 ± 0.026	0.533 ± 0.0097	0.426 ± 0.021	0.58 ± 0.0099	0.104 ± 0.012	0.128 ± 0.013	0.166 ± 0.022	0.227 ± 0.013
LLDIYFILLVWF	0.263 ± 0.02	0.237 ± 0.03	0.267 ± 0.023	0.399 ± 0.024	0.359 ± 0.021	0.258 ± 0.019	0.432 ± 0.066	0.346 ± 0.29
LLFLWVLFLPFA	0.4449 ± 0.00067	0.469 ± 0.005	0.346 ± 0.036	0.5234 ± 0.0037	0.361 ± 0.012	0.342 ± 0.026	0.472 ± 0.0041	0.363 ± 0.045
LLFPRVLVLCFS	0.034 ± 0.011	0.0512 ± 0.0018	0.124 ± 0.037	0.154 ± 0.0093	0.105 ± 0.016	0.117 ± 0.024	0.116 ± 0.012	0.183 ± 0.029
LLILIVNLRRIG	0.376 ± 0.0085	0.556 ± 0.069	0.36 ± 0.04	0.607 ± 0.028	0.1983 ± 0.0009	0.235 ± 0.011	0.444 ± 0.025	0.281 ± 0.052
LLISPFLFLLVC	0.0704 ± 0.043	0.0371 ± 0.002	0.0907 ± 0.02	0.0981 ± 0.022	0.0594 ± 0.018	0.0605 ± 0.014	0.0515 ± 0.00088	0.0803 ± 0.024
LLLLGVSLFLVR	0.282 ± 0.0053	0.378 ± 0.011	0.265 ± 0.019	0.454 ± 0.0081	0.223 ± 0.013	0.255 ± 0.018	0.4257 ± 0.0031	0.3657 ± 0.00075
LLLPSAPFLFLL	0.305 ± 0.015	0.256 ± 0.0043	0.307 ± 0.041	0.435 ± 0.029	0.3387 ± 0.0022	0.201 ± 0.017	0.288 ± 0.014	0.2954 ± 0.0012
LLMLWWARVFSG	0.296 ± 0.032	0.395 ± 0.045	0.298 ± 0.015	0.408 ± 0.0072	0.209 ± 0.016	0.243 ± 0.036	0.35 ± 0.0075	0.329 ± 0.0066
LLVFWRLWWSLS	0.248 ± 0.035	0.334 ± 0.011	0.251 ± 0.034	0.429 ± 0.028	0.081 ± 0.026	0.0903 ± 0.018	0.128 ± 0.007	0.157 ± 0.0075
LLVKFTFLIIFT	0.146 ± 0.0079	0.257 ± 0.089	0.191 ± 0.011	0.31 ± 0.019	0.27 ± 0.02	0.2 ± 0.015	0.2767 ± 0.0024	0.266 ± 0.025
LLVLPFFSLSRF	0.896 ± 0.028	0.90351 ± 0.00018	0.774 ± 0.0081	0.8734 ± 0.0026	0.748 ± 0.024	0.763 ± 0.017	0.852 ± 0.019	0.816 ± 0.01
LLVVFSCFTFMF	0.259 ± 0.0096	0.399 ± 0.042	0.277 ± 0.032	0.476 ± 0.0058	0.254 ± 0.027	0.279 ± 0.028	0.449 ± 0.022	0.38 ± 0.037
LMLGARVSRRIH	0.64 ± 0.082	0.687 ± 0.015	0.673 ± 0.026	0.707 ± 0.026	0.227 ± 0.02	0.263 ± 0.049	0.5065 ± 0.0015	0.402 ± 0.0098
LNALSHCRAICS	0.632 ± 0.027	0.687 ± 0.0091	0.604 ± 0.023	0.692 ± 0.015	0.238 ± 0.0073	0.268 ± 0.028	0.462 ± 0.0055	0.379 ± 0.039
LPASLSLWPLLC	0.4736 ± 0.0023	0.604 ± 0.025	0.537 ± 0.019	0.668 ± 0.012	0.0836 ± 0.017	0.0983 ± 0.017	0.127 ± 0.015	0.1137 ± 0.0011
LPPHLPFPLSAA	0.657 ± 0.0098	0.7225 ± 0.0025	0.638 ± 0.0075	0.724 ± 0.019	0.43 ± 0.0083	0.462 ± 0.019	0.621 ± 0.0089	0.383 ± 0.011
LPSPLLFLPALF	0.708 ± 0.017	0.7877 ± 0.0075	0.667 ± 0.025	0.778 ± 0.055	0.405 ± 0.011	0.436 ± 0.011	0.614 ± 0.017	0.466 ± 0.014
LQSVAFERGGPD	0.687 ± 0.017	0.736 ± 0.0092	0.649 ± 0.0084	0.729 ± 0.015	0.647 ± 0.026	0.661 ± 0.0084	0.7194 ± 0.0071	0.727 ± 0.018

Sequence	protein stability index (Saccharomyces cerevisiae [1]; [3])	protein stability index (Saccharomyces cerevisiae [1]; [4])	protein stability index (Saccharomyces cerevisiae [1]; [5])	protein stability index (Saccharomyces cerevisiae [1]; [6])	protein stability index (Saccharomyces cerevisiae [1]; [7])	protein stability index (Saccharomyces cerevisiae [1]; [8])	protein stability index (Saccharomyces cerevisiae [1]; [9])	protein stability index (Saccharomyces cerevisiae [2])
LRSVVFFCRTLL	0.677 ± 0.045	0.7436 ± 0.0044	0.623 ± 0.014	0.731 ± 0.013	0.3373 ± 0.0013	0.362 ± 0.015	0.566 ± 0.017	0.5 ± 0.0099
LSFFDYVLLQIA	0.556 ± 0.03	0.58 ± 0.029	0.462 ± 0.032	0.635 ± 0.0073	0.166 ± 0.013	0.199 ± 0.028	0.317 ± 0.027	0.285 ± 0.01
LSLGVGSDAEGG	0.687 ± 0.06	0.736 ± 0.015	0.64 ± 0.02	0.743 ± 0.031	0.646 ± 0.021	0.645 ± 0.007	0.712 ± 0.0096	0.549 ± 0.17
LSYRFVFRFLLF	0.543 ± 0.067	0.592 ± 0.0035	0.525 ± 0.013	0.573 ± 0.014	0.39 ± 0.017	0.372 ± 0.027	0.472 ± 0.0083	0.421 ± 0.0094
LVCLFFLSSLFF	0.547 ± 0.05	0.606 ± 0.0081	0.495 ± 0.046	0.602 ± 0.022	0.46 ± 0.016	0.464 ± 0.02	0.58 ± 0.017	0.4609 ± 0.0043
LVCLVASCVRWL	0.453 ± 0.022	0.533 ± 0.0085	0.359 ± 0.037	0.5664 ± 0.0041	0.237 ± 0.0034	0.272 ± 0.027	0.4608 ± 0.0029	0.357 ± 0.019
LVGVLLAVWSVV	0.2387 ± 0.00038	0.294 ± 0.039	0.249 ± 0.039	0.412 ± 0.0087	0.168 ± 0.0025	0.197 ± 0.019	0.338 ± 0.045	0.308 ± 0.017
LVLGLYGVWLVV	0.262 ± 0.005	0.179 ± 0.022	0.254 ± 0.026	0.4104 ± 0.0027	0.355 ± 0.015	0.243 ± 0.024	0.3561 ± 0.0035	0.345 ± 0.015
LVMYRSALIRGH	0.526 ± 0.039	0.529 ± 0.042	0.445 ± 0.0092	0.5693 ± 0.0033	0.3624 ± 0.00052	0.396 ± 0.03	0.525 ± 0.01	0.462 ± 0.05
LVSWAWIWIFVF	0.251 ± 0.057	0.354 ± 0.022	0.253 ± 0.039	0.417 ± 0.0085	0.171 ± 0.0065	0.194 ± 0.022	0.32239 ± 2.4e-05	0.226 ± 0.054
LVSYHKMAISSF	0.595 ± 0.017	0.58 ± 0.019	0.436 ± 0.022	0.626 ± 0.047	0.421 ± 0.0095	0.44 ± 0.022	0.571 ± 0.0095	0.47 ± 0.051
LWWTRVILYGYI	0.51 ± 0.0061	0.571 ± 0.021	0.456 ± 0.027	0.5496 ± 0.0039	0.34 ± 0.0087	0.353 ± 0.016	0.445 ± 0.013	0.387 ± 0.036
LYCGLIFFLRGV	0.6263 ± 0.0019	0.6389 ± 0.0017	0.516 ± 0.018	0.6475 ± 0.0026	0.468 ± 0.032	0.472 ± 0.029	0.612 ± 0.0081	0.516 ± 0.084
LYFLLGSLVFVF	0.366 ± 0.0083	0.417 ± 0.015	0.273 ± 0.035	0.506 ± 0.014	0.244 ± 0.0021	0.275 ± 0.019	0.461 ± 0.031	0.392 ± 0.0081
MALAVRVVTCGA	0.185 ± 0.014	0.297 ± 0.075	0.228 ± 0.036	0.363 ± 0.014	0.191 ± 0.0047	0.223 ± 0.031	0.313 ± 0.015	0.375 ± 0.076
MIQPRLANIIIS	0.8517 ± 0.0056	0.864 ± 0.017	0.683 ± 0.018	0.833 ± 0.015	0.713 ± 0.024	0.6987 ± 0.0051	0.779 ± 0.017	0.753 ± 0.018
MLVLFCLCYILG	0.2462 ± 0.0023	0.34 ± 0.013	0.231 ± 0.025	0.377 ± 0.0043	0.217 ± 0.013	0.235 ± 0.037	0.338 ± 0.03	0.341 ± 0.0068
MSHVCICRRLML	0.68 ± 0.037	0.743 ± 0.016	0.609 ± 0.025	0.712 ± 0.032	0.404 ± 0.028	0.427 ± 0.0081	0.646 ± 0.048	0.498 ± 0.011
NFVVYHVAIRVP	0.073 ± 0.0071	0.134 ± 0.0046	0.17 ± 0.017	0.2466 ± 0.0024	0.139 ± 0.0025	0.155 ± 0.019	0.198 ± 0.02	0.243 ± 0.037
